Molecular target: T1, Gli2-ZF-SNAP (human), P10070
T1 chain: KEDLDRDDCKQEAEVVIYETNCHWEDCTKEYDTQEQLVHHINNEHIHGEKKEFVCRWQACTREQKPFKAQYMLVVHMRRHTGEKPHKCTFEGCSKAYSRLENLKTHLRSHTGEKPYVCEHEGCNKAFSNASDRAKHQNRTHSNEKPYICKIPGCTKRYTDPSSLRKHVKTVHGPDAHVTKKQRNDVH
Experiment: TIRF microscopy; 100 nM Gli2-ZF-SNAP-Alexa647 with 100 nM kinesin on microtubules
Conditions: remark: other sources report otherwise

B1: Kif7-MM (monomeric Kif7 motor domain, 1-386aa), Q2M1P5 1-386 (protein)
chain: MGLEAQRLPGAEEAPVRVALRVRPLLPKELLHGHQSCLQVEPGLGRVTLGRDRHFGFHVVLAEDAGQEAVYQACVQPLLEAFFEGFNATVFAYGQTGSGKTYTMGEASVASLLEDEQGIVPRAMAEAFKLIDENDLLDCLVHVSYLEVYKEEFRDLLEVGTASRDIQLREDERGNVVLCGVKEVDVEGLDEVLSLLEMGNAARHTGATHLNHLSSRSHTVFTVTLEQRGRAPSRLPRPAPGQLLVSKFHFVDLAGSERVLKTGSTGERLKESIQINSSLLALGNVISALGDPQRRGSHIPYRDSKITRILKDSLGGNAKTVMIACVSPSSSDFDETLNTLNYASRAQNIRNRATVNWRPEAERPPEETASGARGPPRHRSETRIIH
modifications: here or on the partner: Alexa 647 dye on the SNAP tag in the TIRF assays
  fold Gli2-ZF Alexa-647 intensity on microtubules over Gli alone: 3 fold
